According to paper PMC9021188 (2022):
Like-named read-outs stand apart in the source and are kept apart here.

Assays:
Assay in all cases: BLI
GD-pangolin RBD protein = GD-pangolin RBD protein (pangolin-CoV-GD)
RaTG13 RBD protein [1] = target: RaTG13 RBD protein (RaTG13)
SARS-CoV RBD protein = SARS-CoV RBD protein (SARS-CoV, UniProt P59594)
GX-pangolin RBD protein = GX-pangolin RBD protein (pangolin-CoV-GX)
RaTG13 RBD protein [2] = target: RaTG13 RBD protein (RaTG13); remark: listed apart in the source

B1: GW01 (antibody, V domains shown)
VH: EVQLVESGGGVVQPGGSLRLSCAASGFRFDDHAMHWVRQAPGKGLEWVSVISGDGGSTYYADSVKGRFSISRDDSKNSLYLQMNSLRTEDTALYYCAKDRSYGPPDVFNYEYGMDVWGQGTTVTVSS
VL: not shown
B1 showed a Kd (GD-pangolin RBD protein) of 4.05 nM, a Kd (RaTG13 RBD protein [1]) of 14.4 nM and a Kd (SARS-CoV RBD protein) of 1.49 nM. For the same binder, the Kd (GX-pangolin RBD protein) was 7.42 nM and the Kd (RaTG13 RBD protein [2]) was 14.2 nM.
